Experimental data reported in patent US20250000946A1 (WUXI BIOLOGICS IRELAND, published 2025).
Where two headings read alike, the source gives them in different places.

Tests used:
[1] = molecular target: T1, Human IL-2Rβ/γ (intermediate affinity IL-2 receptor) (human, UniProt P14784 27-551; P31785 23-369); experiment: FACS, HH cells
T1 construct: whole, on cells; also called IL-2Rβ/γc; IL-2Rβ (CD122) and γ (CD132)
T1 sequence (looked up) 1: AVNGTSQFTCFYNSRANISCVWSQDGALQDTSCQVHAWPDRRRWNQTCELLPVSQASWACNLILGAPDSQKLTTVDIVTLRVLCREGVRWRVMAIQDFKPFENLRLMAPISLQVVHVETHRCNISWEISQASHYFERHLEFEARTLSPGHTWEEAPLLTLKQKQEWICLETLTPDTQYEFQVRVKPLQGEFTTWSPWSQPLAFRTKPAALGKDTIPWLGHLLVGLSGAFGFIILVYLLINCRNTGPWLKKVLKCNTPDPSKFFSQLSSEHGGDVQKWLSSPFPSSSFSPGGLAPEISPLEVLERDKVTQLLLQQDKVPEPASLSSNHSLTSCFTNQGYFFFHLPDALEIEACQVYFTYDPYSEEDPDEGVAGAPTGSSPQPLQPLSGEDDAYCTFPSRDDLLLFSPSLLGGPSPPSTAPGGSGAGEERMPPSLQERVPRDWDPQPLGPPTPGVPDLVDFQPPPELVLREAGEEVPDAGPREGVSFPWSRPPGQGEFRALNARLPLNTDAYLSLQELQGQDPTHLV
T1 sequence (looked up) 2: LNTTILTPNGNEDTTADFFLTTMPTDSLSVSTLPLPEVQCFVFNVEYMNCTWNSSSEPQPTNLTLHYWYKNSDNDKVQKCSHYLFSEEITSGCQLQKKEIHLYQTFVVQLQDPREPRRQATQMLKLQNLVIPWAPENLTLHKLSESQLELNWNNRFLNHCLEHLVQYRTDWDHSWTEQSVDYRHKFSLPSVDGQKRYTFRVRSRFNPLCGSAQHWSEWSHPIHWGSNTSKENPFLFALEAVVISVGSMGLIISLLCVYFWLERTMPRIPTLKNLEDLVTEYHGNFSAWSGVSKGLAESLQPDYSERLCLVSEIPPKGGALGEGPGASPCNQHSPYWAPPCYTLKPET
Experimental: (§1) Human cutaneous T cell lymphoma HH cells, malignant non-Hodgkin's lymphoma NK92 cells and cutaneous T cell lymphoma MJ20 cells were used for binding assay. They both constitutively express IL-2Rβ (CD122) and […] (CD132), and NK92 and MJ20 also expresses IL-2Rα (CD25). HH, NK92 and MJ20 cells were cultured following ATCC guidance, then transferred to a 96-plate for binding analysis. Cells were incubated with IL-2/Fc fusion proteins at the indicated concentrations for 30 min at 4° C. to avoid internalization. Binding was detected by 2nd antibody of PE-anti-human Fc at 4° C. for another 30 min. The median fluorescence intensity (MFI) on HH and NK92 cells was measured using FACS.

[2] = molecular target: T2, Human IL-2Rα/β/γ complex (high affinity IL-2 receptor) (human, UniProt P01589 22-272; P14784 27-551; P31785 23-369); experiment: FACS, NK92 cells; EC50 fold vs T2U0.E44-1
T2 construct: whole, on cells
T2 sequence (looked up) 1: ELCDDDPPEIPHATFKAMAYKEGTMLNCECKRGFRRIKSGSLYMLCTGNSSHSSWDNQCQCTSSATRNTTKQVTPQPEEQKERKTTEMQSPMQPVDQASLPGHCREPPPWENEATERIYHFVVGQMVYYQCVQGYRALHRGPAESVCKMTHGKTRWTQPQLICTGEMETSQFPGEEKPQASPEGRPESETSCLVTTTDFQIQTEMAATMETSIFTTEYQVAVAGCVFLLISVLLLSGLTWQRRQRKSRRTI
T2 sequence (looked up) 2: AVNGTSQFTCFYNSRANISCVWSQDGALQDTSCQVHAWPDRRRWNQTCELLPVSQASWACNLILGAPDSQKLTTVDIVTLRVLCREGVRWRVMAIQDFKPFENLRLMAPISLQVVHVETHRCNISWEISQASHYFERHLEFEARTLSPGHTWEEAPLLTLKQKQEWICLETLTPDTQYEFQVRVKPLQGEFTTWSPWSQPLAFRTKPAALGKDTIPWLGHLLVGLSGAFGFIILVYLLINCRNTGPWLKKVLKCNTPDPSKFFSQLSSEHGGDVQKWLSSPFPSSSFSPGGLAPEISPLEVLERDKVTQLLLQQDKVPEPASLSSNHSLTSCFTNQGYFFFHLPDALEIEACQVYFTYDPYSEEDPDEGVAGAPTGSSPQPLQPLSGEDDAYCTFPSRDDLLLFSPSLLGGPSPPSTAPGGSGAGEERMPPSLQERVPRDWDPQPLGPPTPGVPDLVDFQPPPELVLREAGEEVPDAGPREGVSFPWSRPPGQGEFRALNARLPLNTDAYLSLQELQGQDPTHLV
T2 sequence (looked up) 3: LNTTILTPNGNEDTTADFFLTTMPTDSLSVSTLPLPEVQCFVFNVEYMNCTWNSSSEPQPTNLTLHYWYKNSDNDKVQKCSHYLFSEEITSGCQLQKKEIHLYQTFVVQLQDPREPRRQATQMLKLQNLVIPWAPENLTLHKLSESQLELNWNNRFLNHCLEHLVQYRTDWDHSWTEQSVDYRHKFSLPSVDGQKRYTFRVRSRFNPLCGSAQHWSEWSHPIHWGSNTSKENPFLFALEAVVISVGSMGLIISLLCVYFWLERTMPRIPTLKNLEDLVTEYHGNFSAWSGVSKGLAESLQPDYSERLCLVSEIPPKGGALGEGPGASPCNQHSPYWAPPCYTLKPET
Experimental: as §1

[3] = molecular target: T2, Human IL-2Rα/β/γ complex (high affinity …); experiment: FACS, NK92 cells
Experimental: as §1

[4] = molecular target: T1, Human IL-2Rβ/γ (intermediate affinity …); experiment: cell-based or functional assay
[5] = molecular target: T2, Human IL-2Rα/β/γ complex (high affinity …); experiment: cell-based or functional assay
[6] = molecular target: T1, Human IL-2Rβ/γ (intermediate affinity …); experiment: FACS, HH cells; EC50 fold vs T2U0.E44-1
Experimental: as §1

[7] = molecular target: T2, Human IL-2Rα/β/γ complex (high affinity …); experiment: FACS, MJ20 cells
Experimental: as §1

[8] = molecular target: T1, Human IL-2Rβ/γ (intermediate affinity …); experiment: FACS, HH cells; EC50 fold vs T2U0.E44-1; remark: listed apart in the source
Procedure, shortened: (§2)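 Surface binding of IL-2/Fc fusion proteins at 4° C. (30 min, no internalization) on lymphoma lines HH (CD122/CD132 only), NK92 and MJ20 (plus CD25); secondary PE-anti-human Fc; MFI by FACS.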

[9] = molecular target: T1, Human IL-2Rβ/γ (intermediate affinity …); experiment: cell-based or functional assay; remark: listed apart in the source
[10] = molecular target: T2, Human IL-2Rα/β/γ complex (high affinity …); experiment: cell-based or functional assay; remark: listed apart in the source
[11] = molecular target: T2, Human IL-2Rα/β/γ complex (high affinity …); experiment: FACS, MJ20 cells; EC50 fold vs T2U0.E44-1
Experimental: as §1

[12] = molecular target: T1, Human IL-2Rβ/γ (intermediate affinity …); experiment: FACS, HH cells; remark: listed apart in the source
Procedure, shortened: as §2

Binder | EC50 [1] | Affinity reduction [2] | EC50 [3] | Human CD8+ T Potency EC50 (STAT5 phosphorylation) [4] | Human CD8+ T Potency reduction [4] | Human Treg Potency EC50 (STAT5 phosphorylation) [5] | Human Treg Potency reduction [5] | Affinity reduction [6] | EC50 [7] | Affinity reduction [8] | Potency in human CD8+ T EC50 [9] | Potency reduction (CD8+ T) [9] | Potency in human Treg EC50 [10] | Potency reduction (Treg) [10] | Affinity reduction [11] | EC50 [12]
W3XX115-T2U0.E44-15.uIgG4V1 (Fc fusion, IL-2 del STLT and F42V; E44 format, IgG4) APTSSSTKKTQLQLEHLLLDLQMILNGINNYKNPKLTRMLTVKFYMPKKATELKHLQCLEEELKPLEEVLNLAQSKNFHLRPRDLISNINVIVLELKGSETTFMCEYADETATIVEFLNRWITFCQSIIESKYGPPCPPCPAPEFLGGPSVFLFPPKPKDTLMISRTPEVTCVVVDVSQEDPEVQFNWYVDGVEVHNAKTKPREEQFNSTYRVVSVLTVLHQDWLNGKEYKCKVSNKGLPSSIEKTISKAKGQPREPQVYTLPPCQEEMTKNQVSLWCLVKGFYPSDIAVEWESNGQPENNYKTTPPVLDSDGSFFLYSRLTVDKSRWQEGNVFSCSVMHEALHNHYTQKSLSLSLG heavy: EIQLQQSGPELVKPGASVKVSCKASGYSFTDYNMYWVKQSHGESLEWIGYIDPYNGGTRYNQKFKGKATLTVDKSSSTAFMHLNSLTSEDSAVYYCARNGHWDGAWFAYWGQGTLVTVSAASTKGPSVFPLAPCSRSTSESTAALGCLVKDYFPEPVTVSWNSGALTSGVHTFPAVLQSSGLYSLSSVVTVPSSSLGTKTYTCNVDHKPSNTKVDKRVESKYGPPCPPCPAPEFLGGPSVFLFPPKPKDTLMISRTPEVTCVVVDVSQEDPEVQFNWYVDGVEVHNAKTKPREEQFNSTYRVVSVLTVLHQDWLNGKEYKCKVSNKGLPSSIEKTISKAKGQPREPQVCTLPPSQEEMTKNQVSLSCAVKGFYPSDIAVEWESNGQPENNYKTTPPVLDSDGSFFLVSRLTVDKSRWQEGNVFSCSVMHEALHNHYTQKSLSLSLG light: DIQMNQSPSSLSASLGDTITITCHASQNINVWLSWYQQKPGNIPKLLIYKASNLHTGVPSRFSGSRSGTGFTLTISSLQPEDIATYYCHQGQSYPFTFGSGTKLEIKRTVAAPSVFIFPPSDEQLKSGTASVVCLLNNFYPREAKVQWKVDNALQSGNSQESVTEQDSKDSTYSLSSTLTLSKADYEKHKVYACEVTHQGLSSPVTKSFNRGEC | ~470 nM | 91.6 fold | 2740 nM | 312 nM | 30.3 fold | 54.9 nM | 4620 fold | 18.8 fold | – | – | – | – | – | – | – | –
W3XX115-T2U0.E44-39.uIgG4V322 (Fc fusion, IL-2 del STLT and I128A; E44 format, IgG4 FALA) APTSSSTKKTQLQLEHLLLDLQMILNGINNYKNPKLTRMLTFKFYMPKKATELKHLQCLEEELKPLEEVLNLAQSKNFHLRPRDLISNINVIVLELKGSETTFMCEYADETATIVEFLNRWITFCQSAIESKYGPPCPPCPAPEAAGGPSVFLFPPKPKDTLMISRTPEVTCVVVDVSQEDPEVQFNWYVDGVEVHNAKTKPREEQFNSTYRVVSVLTVLHQDWLNGKEYKCKVSNKGLPSSIEKTISKAKGQPREPQVYTLPPCQEEMTKNQVSLWCLVKGFYPSDIAVEWESNGQPENNYKTTPPVLDSDGSFFLYSRLTVDKSRWQEGNVFSCSVMHEALHNHYTQKSLSLSLG heavy: EIQLQQSGPELVKPGASVKVSCKASGYSFTDYNMYWVKQSHGESLEWIGYIDPYNGGTRYNQKFKGKATLTVDKSSSTAFMHLNSLTSEDSAVYYCARNGHWDGAWFAYWGQGTLVTVSAASTKGPSVFPLAPCSRSTSESTAALGCLVKDYFPEPVTVSWNSGALTSGVHTFPAVLQSSGLYSLSSVVTVPSSSLGTKTYTCNVDHKPSNTKVDKRVESKYGPPCPPCPAPEAAGGPSVFLFPPKPKDTLMISRTPEVTCVVVDVSQEDPEVQFNWYVDGVEVHNAKTKPREEQFNSTYRVVSVLTVLHQDWLNGKEYKCKVSNKGLPSSIEKTISKAKGQPREPQVCTLPPSQEEMTKNQVSLSCAVKGFYPSDIAVEWESNGQPENNYKTTPPVLDSDGSFFLVSRLTVDKSRWQEGNVFSCSVMHEALHNHYTQKSLSLSLG light: DIQMNQSPSSLSASLGDTITITCHASQNINVWLSWYQQKPGNIPKLLIYKASNLHTGVPSRFSGSRSGTGFTLTISSLQPEDIATYYCHQGQSYPFTFGSGTKLEIKRTVAAPSVFIFPPSDEQLKSGTASVVCLLNNFYPREAKVQWKVDNALQSGNSQESVTEQDSKDSTYSLSSTLTLSKADYEKHKVYACEVTHQGLSSPVTKSFNRGEC | – | – | – | – | – | – | – | – | 74200 nM | 6.8 fold | 99.9 nM | 9.8 fold | 2 nM | 1020 fold | 1770 fold | 355 nM
W3XX115-T2U0.E44-36.uIgG4V322 (Fc fusion, IL-2 del STLT and S127D; E44 format, IgG4 FALA) APTSSSTKKTQLQLEHLLLDLQMILNGINNYKNPKLTRMLTFKFYMPKKATELKHLQCLEEELKPLEEVLNLAQSKNFHLRPRDLISNINVIVLELKGSETTFMCEYADETATIVEFLNRWITFCQDIIESKYGPPCPPCPAPEAAGGPSVFLFPPKPKDTLMISRTPEVTCVVVDVSQEDPEVQFNWYVDGVEVHNAKTKPREEQFNSTYRVVSVLTVLHQDWLNGKEYKCKVSNKGLPSSIEKTISKAKGQPREPQVYTLPPCQEEMTKNQVSLWCLVKGFYPSDIAVEWESNGQPENNYKTTPPVLDSDGSFFLYSRLTVDKSRWQEGNVFSCSVMHEALHNHYTQKSLSLSLG heavy: EIQLQQSGPELVKPGASVKVSCKASGYSFTDYNMYWVKQSHGESLEWIGYIDPYNGGTRYNQKFKGKATLTVDKSSSTAFMHLNSLTSEDSAVYYCARNGHWDGAWFAYWGQGTLVTVSAASTKGPSVFPLAPCSRSTSESTAALGCLVKDYFPEPVTVSWNSGALTSGVHTFPAVLQSSGLYSLSSVVTVPSSSLGTKTYTCNVDHKPSNTKVDKRVESKYGPPCPPCPAPEAAGGPSVFLFPPKPKDTLMISRTPEVTCVVVDVSQEDPEVQFNWYVDGVEVHNAKTKPREEQFNSTYRVVSVLTVLHQDWLNGKEYKCKVSNKGLPSSIEKTISKAKGQPREPQVCTLPPSQEEMTKNQVSLSCAVKGFYPSDIAVEWESNGQPENNYKTTPPVLDSDGSFFLVSRLTVDKSRWQEGNVFSCSVMHEALHNHYTQKSLSLSLG light: DIQMNQSPSSLSASLGDTITITCHASQNINVWLSWYQQKPGNIPKLLIYKASNLHTGVPSRFSGSRSGTGFTLTISSLQPEDIATYYCHQGQSYPFTFGSGTKLEIKRTVAAPSVFIFPPSDEQLKSGTASVVCLLNNFYPREAKVQWKVDNALQSGNSQESVTEQDSKDSTYSLSSTLTLSKADYEKHKVYACEVTHQGLSSPVTKSFNRGEC | – | – | – | – | – | – | – | – | 98.5 nM | 25.1 fold | ~12.2 nM | – | 0.1 nM | 52.2 fold | 2.4 fold | 1320 nM
